Reference: PMC5576923 (eLife, 2017)

B1: ARHGAP21 (natural protein, human (endogenous in Caco-2 and HCT116), UniProt Q5T5U3 1-1958, looked up)
chain: MMATRRTGLSEGDGDKLKACEVSKNKDGKEQSETVSLSEDETFSWPGPKTVTLKRTSQGFGFTLRHFIVYPPESAIQFSYKDEENGNRGGKQRNRLEPMDTIFVKQVKEGGPAFEAGLCTGDRIIKVNGESVIGKTYSQVIALIQNSDTTLELSVMPKDEDILQVLQFTKDVTALAYSQDAYLKGNEAYSGNARNIPEPPPICYPWLPSAPSAMAQPVEISPPDSSLSKQQTSTPVLTQPGRAYRMEIQVPPSPTDVAKSNTAVCVCNESVRTVIVPSEKVVDLLSNRNNHTGPSHRTEEVRYGVSEQTSLKTVSRTTSPPLSIPTTHLIHQPAGSRSLEPSGILLKSGNYSGHSDGISSSRSQAVEAPSVSVNHYSPNSHQHIDWKNYKTYKEYIDNRRLHIGCRTIQERLDSLRAASQSTTDYNQVVPNRTTLQGRRRSTSHDRVPQSVQIRQRSVSQERLEDSVLMKYCPRSASQGALTSPSVSFSNHRTRSWDYIEGQDETLENVNSGTPIPDSNGEKKQTYKWSGFTEQDDRRGICERPRQQEIHKSFRGSNFTVAPSVVNSDNRRMSGRGVGSVSQFKKIPPDLKTLQSNRNFQTTCGMSLPRGISQDRSPLVKVRSNSLKAPSTHVTKPSFSQKSFVSIKDQRPVNHLHQNSLLNQQTWVRTDSAPDQQVETGKSPSLSGASAKPAPQSSENAGTSDLELPVSQRNQDLSLQEAETEQSDTLDNKEAVILREKPPSGRQTPQPLRHQSYILAVNDQETGSDTTCWLPNDARREVHIKRMEERKASSTSPPGDSLASIPFIDEPTSPSIDHDIAHIPASAVISASTSQVPSIATVPPCLTTSAPLIRRQLSHDHESVGPPSLDAQPNSKTERSKSYDEGLDDYREDAKLSFKHVSSLKGIKIADSQKSSEDSGSRKDSSSEVFSDAAKEGWLHFRPLVTDKGKRVGGSIRPWKQMYVVLRGHSLYLYKDKREQTTPSEEEQPISVNACLIDISYSETKRKNVFRLTTSDCECLFQAEDRDDMLAWIKTIQESSNLNEEDTGVTNRDLISRRIKEYNNLMSKAEQLPKTPRQSLSIRQTLLGAKSEPKTQSPHSPKEESERKLLSKDDTSPPKDKGTWRKGIPSIMRKTFEKKPTATGTFGVRLDDCPPAHTNRYIPLIVDICCKLVEERGLEYTGIYRVPGNNAAISSMQEELNKGMADIDIQDDKWRDLNVISSLLKSFFRKLPEPLFTNDKYADFIEANRKEDPLDRLKTLKRLIHDLPEHHYETLKFLSAHLKTVAENSEKNKMEPRNLAIVFGPTLVRTSEDNMTHMVTHMPDQYKIVETLIQHHDWFFTEEGAEEPLTTVQEESTVDSQPVPNIDHLLTNIGRTGVSPGDVSDSATSDSTKSKGSWGSGKDQYSRELLVSSIFAAASRKRKKPKEKAQPSSSEDELDNVFFKKENVEQCHNDTKEESKKESETLGRKQKIIIAKENSTRKDPSTTKDEKISLGKESTPSEEPSPPHNSKHNKSPTLSCRFAILKESPRSLLAQKSSHLEETGSDSGTLLSTSSQASLARFSMKKSTSPETKHSEFLANVSTITSDYSTTSSATYLTSLDSSRLSPEVQSVAESKGDEADDERSELISEGRPVETDSESEFPVFPTALTSERLFRGKLQEVTKSSRRNSEGSELSCTEGSLTSSLDSRRQLFSSHKLIECDTLSRKKSARFKSDSGSLGDAKNEKEAPSLTKVFDVMKKGKSTGSLLTPTRGESEKQEPTWKTKIADRLKLRPRAPADDMFGVGNHKVNAETAKRKSIRRRHTLGGHRDATEISVLNFWKVHEQSGERESELSAVNRLKPKCSAQDLSISDWLARERLRTSTSDLSRGEIGDPQTENPSTREIATTDTPLSLHCNTGSSSSTLASTNRPLLSIPPQSPDQINGESFQNVSKNASSAANAQPHKLSETPGSKAEFHPCL
notes: also called ARHGA21; source: endogenous, Caco-2, Caco-2 ShPTEN, HCT116 and PTEN-/- HCT116 cells (lysate, membrane fraction, or fixed cells)
B2: GFP-labeled PTEN C124S-T383A (natural protein, UniProt P60484 1-403, looked up)
chain: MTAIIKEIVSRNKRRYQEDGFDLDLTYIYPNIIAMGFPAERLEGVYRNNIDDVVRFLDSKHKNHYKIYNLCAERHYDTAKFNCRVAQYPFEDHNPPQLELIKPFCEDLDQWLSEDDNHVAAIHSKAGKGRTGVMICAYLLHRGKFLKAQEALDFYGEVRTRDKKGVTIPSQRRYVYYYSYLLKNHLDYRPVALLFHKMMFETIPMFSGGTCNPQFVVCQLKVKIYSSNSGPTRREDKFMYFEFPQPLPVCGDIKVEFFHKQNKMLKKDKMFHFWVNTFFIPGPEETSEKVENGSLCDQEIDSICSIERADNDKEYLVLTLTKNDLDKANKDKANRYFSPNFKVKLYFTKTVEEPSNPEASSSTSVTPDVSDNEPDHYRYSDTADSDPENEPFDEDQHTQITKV
notes: also called CS-T383A; source: PTEN-/- HCT116 cells, transfected, in fixed cells
B3: PTEN (phosphatase and tensin homolog) (natural protein)
chain: not shown
notes: source: endogenous, HCT116 cells (fixed cells)

Key:
β-Arrestin1 [1] = molecular target: T1, β-Arrestin1 (human (endogenous in Caco-2 and HCT116), UniProt P49407 1-418); assay: proximity ligation; Duolink II red kit on fixed, permeabilised cells; PTEN-/- HCT116 cells transfected 24 hr with GFP-tagged EV or PTEN constructs, HCT116 cells as positive control; signal as AI units, n = 35 cells per condition in triplicate; details: partners not purified
T1 construct: β-Arrestin1, endogenous in human colorectal cell lines Caco-2 and HCT116 and their PTEN-deficient subclones; Precipitated with anti-β-Arrestin1 (bait of the co-IPs); detected with mouse anti-β-Arrestin1 in the PLA; also called Beta-Arrestin1; source: endogenous, Caco-2, Caco-2 ShPTEN, HCT116 and PTEN-/- HCT116 cells (lysate, membrane fraction, or fixed cells)
T1 sequence (P49407 whole entry): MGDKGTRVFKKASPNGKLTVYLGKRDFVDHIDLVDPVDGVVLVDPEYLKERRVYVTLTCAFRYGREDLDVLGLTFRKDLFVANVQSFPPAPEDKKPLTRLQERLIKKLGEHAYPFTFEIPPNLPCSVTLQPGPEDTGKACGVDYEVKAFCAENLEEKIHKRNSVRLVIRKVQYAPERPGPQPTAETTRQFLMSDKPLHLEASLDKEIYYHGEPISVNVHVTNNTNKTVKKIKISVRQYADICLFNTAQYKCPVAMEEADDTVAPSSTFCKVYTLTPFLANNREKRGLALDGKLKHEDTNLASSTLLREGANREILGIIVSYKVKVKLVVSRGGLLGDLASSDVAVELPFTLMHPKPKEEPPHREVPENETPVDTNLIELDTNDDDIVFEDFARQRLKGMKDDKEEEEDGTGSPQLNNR

β-Arrestin1 [2] = molecular target: T1, β-Arrestin1; assay: cell-based or functional assay

Binder	PLA interaction AI (β-Arrestin1 [1])	Cdc42-GTP (ADU, fold) in HCT116 cells after pep24 vs control peptide (β-Arrestin1 [2])	Cdc42-GTP (fold change, ADU) in Caco-2 cells after 10 μM pep24 vs control peptide (β-Arrestin1 [2])
B1	123 AI units	0.44 fold change	0.48 fold change
B2	69.8 AI units	–	–
B3	101 AI units	–	–
